One experiment concerns the target HLA-A*02:01. In words: IEDB peptide-MHC binding, purified MHC/competitive/fluorescence; filed as Kd, often an IC50 or EC50 that approximates it; ≥ and ≤ were set here for values at or beyond the usual limits of such assays. Conditions: source organism: Variola virus.
The next experiment deals with HLA-B*08:01. In words: IEDB peptide-MHC binding, purified MHC/competitive/radioactivity; filed as Kd, often an IC50 or EC50 that approximates it; ≥ and ≤ were set here for values at or beyond the usual limits of such assays.
The target in another experiment is HLA-B*15:01. The experiment is described as above. Conditions: source organism: Vaccinia virus WR.
The target of a further experiment is HLA-A*01:01. The experiment is described as above.
The target in another experiment is HLA-A*23:01. Described as above.
The target in another experiment is HLA-A*24:02. Described as above.
In a further experiment the target is HLA-A*26:01. The description is as above.
The target of the next experiment is HLA-A*29:02. Described as above.
A further experiment has as its target HLA-A*30:02. The description is as above.
The target in another experiment is HLA-A*02:02. The description is as above. As to conditions: source organism: Vaccinia virus WR.
Another experiment has as its target HLA-A*02:03. The description is as above. Conditions: source organism: Vaccinia virus WR.
The target in another experiment is HLA-A*02:06. The description is as above. As to conditions: source organism: Vaccinia virus WR.
The mark [1] stands for this setting: source organism: Vaccinia virus WR.
Where [2] appears, read: source organism: SARS coronavirus Tor2.
Where [3] appears, read: source organism: Mammarenavirus lassaense.
Where [4] appears, read: source organism: Mammarenavirus guanaritoense.
Setting [5] is: source organism: Influenza A virus (A/Ann Arbor/6/1960(H2N2)).

Turning to SMHFYGWSL, the Kd was determined as 0.303 µM in the experiment with HLA-A*02:01, 0.00285 µM in the experiment with HLA-B*08:01 (setting [1]) and 0.063 µM with HLA-B*15:01.
In the case of WKTWGKAKML, the Kd with HLA-B*08:01 (source organism: Dengue virus 2 Jamaica/1409/1983) came to 3.8 µM.
LTKHPNQEY: the Kd in the experiment with HLA-A*01:01 (setting [2]) was 17.3 µM; with HLA-A*23:01 (setting [2]) it was at least 77.8 µM; with HLA-A*24:02 (setting [2]), at least 77.6 µM; in the experiment with HLA-A*26:01 (setting [2]) it was at least 34.3 µM; with HLA-A*29:02 (setting [2]), 3.4 µM; in the experiment with HLA-A*30:02 (setting [2]) it was 0.153 µM.
Turning to AGFTAGLSY, the Kd was at least 21.1 µM with HLA-A*01:01 (setting [3]); at least 69.9 µM in the experiment with HLA-A*23:01 (setting [3]); at least 77.5 µM with HLA-A*24:02 (setting [3]); at least 77.9 µM in the experiment with HLA-A*26:01 (setting [3]); 0.0604 µM in the experiment with HLA-A*29:02 (setting [3]); 0.149 µM in the experiment with HLA-A*30:02 (setting [3]).
For the sequence VFQPSTGNYV, the Kd with HLA-A*01:01 (setting [4]) was at least 70.4 µM; with HLA-A*23:01 (setting [4]), 5.66 µM; with HLA-A*24:02 (setting [4]), 1.53 µM; in the experiment with HLA-A*26:01 (setting [4]), at least 69.7 µM; in the experiment with HLA-A*29:02 (setting [4]) it was at least 31.6 µM; in the experiment with HLA-A*30:02 (setting [4]) it was 1.01 µM.
For ANITHFCSF, the Kd in the experiment with HLA-B*08:01 (setting [1]) came to 10.6 µM; with HLA-B*15:01, 0.015 µM.
As to ERLQRKHGGM, the Kd in the experiment with HLA-B*08:01 (source organism: Dengue virus 3 Martinique/1243/1999) was found to be 0.0922 µM.
As for PFVVSTGYHF, the Kd with HLA-A*01:01 (setting [2]) is 4.89 µM; with HLA-A*23:01 (setting [2]) it was 0.00303 µM; with HLA-A*24:02 (setting [2]), 0.0679 µM; with HLA-A*26:01 (setting [2]) it was 0.974 µM; with HLA-A*29:02 (setting [2]) it was 0.257 µM; with HLA-A*30:02 (setting [2]), 11.8 µM.
As to NLRCHSAHV, the Kd turned out to be 0.384 µM with HLA-A*02:02, 0.011 µM with HLA-A*02:03, 8.03 µM with HLA-A*02:06 and 0.00124 µM with HLA-B*08:01 (setting [1]).
In the case of SLLKNDVPL, in the experiment with HLA-B*08:01 (source organism: Dengue virus 1 Brazil/97-11/1997), the Kd turned out to be 0.124 µM.
AFLPFTLGI: the Kd with HLA-A*01:01 (setting [2]) is at least 78.1 µM; with HLA-A*23:01 (setting [2]), at least 45.8 µM; in the experiment with HLA-A*24:02 (setting [2]) it was at least 81.8 µM; with HLA-A*26:01 (setting [2]), at least 77.9 µM; with HLA-A*29:02 (setting [2]), 0.529 µM; with HLA-A*30:02 (setting [2]), 8.04 µM.
As for FNKGHFTRL, the Kd in the experiment with HLA-B*08:01 (source organism: Vaccinia virus Copenhagen) was found to be 0.0163 µM.
With RQEMASRGLW, the Kd with HLA-A*01:01 (setting [5]) is at least 70.4 µM; with HLA-A*23:01 (setting [5]), 1.73 µM; with HLA-A*24:02 (setting [5]), 9.01 µM; in the experiment with HLA-A*26:01 (setting [5]), at least 69.7 µM; with HLA-A*29:02 (setting [5]), 1.88 µM; with HLA-A*30:02 (setting [5]), 4.35 µM.
Take LFCLLNRYF: the Kd was 3.44 µM with HLA-A*01:01 (setting [2]); at least 70 µM in the experiment with HLA-A*23:01 (setting [2]); at least 77.6 µM with HLA-A*24:02 (setting [2]); 1.14 µM in the experiment with HLA-A*26:01 (setting [2]); at least 40.4 µM with HLA-A*29:02 (setting [2]); at least 81.1 µM with HLA-A*30:02 (setting [2]).
Regarding YYFMKFRRVF, the Kd in the experiment with HLA-A*01:01 (setting [2]) was 3.18 µM; with HLA-A*23:01 (setting [2]), 0.00151 µM; with HLA-A*24:02 (setting [2]), 0.00392 µM; in the experiment with HLA-A*26:01 (setting [2]) it was 1.75 µM; with HLA-A*29:02 (setting [2]) it was 0.0028 µM; with HLA-A*30:02 (setting [2]), at least 22.2 µM.
Turning to PYPDPSRIL, the Kd with HLA-A*01:01 (setting [2]) was at least 78.1 µM; with HLA-A*23:01 (setting [2]), 19.8 µM; with HLA-A*24:02 (setting [2]), at least 83.3 µM; with HLA-A*26:01 (setting [2]), at least 77.9 µM; with HLA-A*29:02 (setting [2]), at least 35.9 µM; in the experiment with HLA-A*30:02 (setting [2]), at least 75 µM.
Regarding LFFFVYENAF, the Kd in the experiment with HLA-A*01:01 (setting [2]) was 9.72 µM; in the experiment with HLA-A*23:01 (setting [2]), 0.0588 µM; in the experiment with HLA-A*24:02 (setting [2]) it was 0.185 µM; in the experiment with HLA-A*26:01 (setting [2]), 14.5 µM; with HLA-A*29:02 (setting [2]) it was 0.107 µM; in the experiment with HLA-A*30:02 (setting [2]), at least 51.1 µM.

Source of the values: the Immune Epitope Database (IEDB).
